Target: ヒトVEGF (human) (UniProt P15692)
Experiment: cell-based or functional assay

Chain of UniProt P15692 (P15692 other isoform, or with tags, fused parts or gaps limits assumed): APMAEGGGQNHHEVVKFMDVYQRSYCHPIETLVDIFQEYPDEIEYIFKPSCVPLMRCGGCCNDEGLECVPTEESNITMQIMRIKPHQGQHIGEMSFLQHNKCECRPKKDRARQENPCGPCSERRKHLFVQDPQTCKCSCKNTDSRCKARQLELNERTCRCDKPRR

**Q.** With VEGFR1−Fc−IL−1ra (Fc fusion) as the substance, how does the EC50 (inhibition of VEGF-dependent HUVE cell proliferation, VEGF 10 ng/ml) read?
**A.** Its EC50 (inhibition of VEGF-dependent HUVE cell proliferation, VEGF 10 ng/ml) is 15 ng/mL.
